Data taken from patent US20170260508A1.

Biological target: chimeric LILRB2-PILRβ receptor (aa 24-458 of hLILRB2) on mouse T cell hybridoma NFAT-GFP reporter cells (human) (UniProt Q8N423)
Experiment: cell-based or functional assay

chimeric LILRB2-PILRβ receptor (aa 24-458 of hLILRB2) on mouse T cell hybridoma NFAT-GFP reporter cells (human), sequence (Q8N423 other isoform, or with tags, fused parts or gaps mutant limits assumed, form in doubt): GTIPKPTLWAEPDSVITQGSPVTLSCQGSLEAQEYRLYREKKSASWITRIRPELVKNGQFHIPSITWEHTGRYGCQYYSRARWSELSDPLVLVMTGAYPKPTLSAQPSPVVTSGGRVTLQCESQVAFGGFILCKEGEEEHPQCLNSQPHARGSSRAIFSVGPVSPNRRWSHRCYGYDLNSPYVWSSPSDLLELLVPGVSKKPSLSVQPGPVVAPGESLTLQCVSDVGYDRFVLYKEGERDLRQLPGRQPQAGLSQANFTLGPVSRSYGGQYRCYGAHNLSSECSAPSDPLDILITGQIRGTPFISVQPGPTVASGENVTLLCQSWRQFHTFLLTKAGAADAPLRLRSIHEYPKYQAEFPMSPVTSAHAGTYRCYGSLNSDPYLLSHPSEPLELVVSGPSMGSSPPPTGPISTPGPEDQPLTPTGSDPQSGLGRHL

Substance: GST-human Angptl2, bacterially expressed (GST-Angptl2-FLAG) (from UniProt Q9UKU9 23-493) (ligand)
- GFP expression of LILRB2 reporter cells, immobilized monomeric GST-Angptl2: 20%
- GFP expression of LILRB2 reporter cells, soluble monomeric GST-Angptl2: 3.56%
- GFP induction of LILRB2 reporter cells by immobilized Angptl2, no antibody: 19.9%
